According to paper PMC5446187, “USP9X counteracts differential ubiquitination of NPHP5 by MARCH7 and BBS11 to regulate ciliogenesis” (PLoS Genetics, 2017):

Legend:
BBS11/TRIM32, endogenous = molecular target: T1, BBS11/TRIM32, endogenous (human (endogenous in HEK293), UniProt Q13049 1-653); test: pull-down; 1 μg purified Flag-NPHP5 mixed with 1 μg purified USP9X, BBS11 or MARCH7 bound to beads, 4°C, 2 h, extensive washing, Western blot; details: both partners purified
T1 construct: E3 ubiquitin ligase BBS11/TRIM32, endogenous in HEK293; also called endogenous BBS11; source: endogenous, HEK293 lysate; also immunoprecipitated from HEK293 with anti-BBS11 antibody, 500 mM NaCl washes, kept on beads
T1 sequence (looked up): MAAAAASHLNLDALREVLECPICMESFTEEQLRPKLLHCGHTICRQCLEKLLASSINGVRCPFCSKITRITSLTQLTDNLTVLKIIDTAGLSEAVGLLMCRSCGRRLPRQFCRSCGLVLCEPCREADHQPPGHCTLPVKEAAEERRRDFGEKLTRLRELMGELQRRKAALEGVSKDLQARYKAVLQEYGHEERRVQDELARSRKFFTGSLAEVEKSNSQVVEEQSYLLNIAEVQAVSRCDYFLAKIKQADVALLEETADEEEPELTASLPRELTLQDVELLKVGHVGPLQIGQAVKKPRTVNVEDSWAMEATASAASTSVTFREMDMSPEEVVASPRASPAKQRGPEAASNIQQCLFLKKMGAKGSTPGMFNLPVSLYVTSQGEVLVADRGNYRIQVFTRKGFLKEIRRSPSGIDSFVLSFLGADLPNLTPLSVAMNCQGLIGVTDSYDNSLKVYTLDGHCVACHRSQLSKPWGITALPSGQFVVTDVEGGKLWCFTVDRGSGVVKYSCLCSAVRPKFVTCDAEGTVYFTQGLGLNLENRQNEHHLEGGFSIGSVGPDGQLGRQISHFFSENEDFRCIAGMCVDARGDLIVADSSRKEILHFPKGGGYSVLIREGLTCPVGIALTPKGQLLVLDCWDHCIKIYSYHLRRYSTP

[1] = molecular target: T2, MARCH7/axotrophin, endogenous (human (endogenous in HEK293), UniProt Q9H992 1-704); test: as above; details: both partners purified
T2 construct: E3 ubiquitin ligase MARCH7/axotrophin, endogenous in HEK293; also called endogenous MARCH7; source: endogenous, HEK293 lysate; also immunoprecipitated from HEK293 with anti-MARCH7 antibody, 500 mM NaCl washes, kept on beads
T2 sequence (looked up): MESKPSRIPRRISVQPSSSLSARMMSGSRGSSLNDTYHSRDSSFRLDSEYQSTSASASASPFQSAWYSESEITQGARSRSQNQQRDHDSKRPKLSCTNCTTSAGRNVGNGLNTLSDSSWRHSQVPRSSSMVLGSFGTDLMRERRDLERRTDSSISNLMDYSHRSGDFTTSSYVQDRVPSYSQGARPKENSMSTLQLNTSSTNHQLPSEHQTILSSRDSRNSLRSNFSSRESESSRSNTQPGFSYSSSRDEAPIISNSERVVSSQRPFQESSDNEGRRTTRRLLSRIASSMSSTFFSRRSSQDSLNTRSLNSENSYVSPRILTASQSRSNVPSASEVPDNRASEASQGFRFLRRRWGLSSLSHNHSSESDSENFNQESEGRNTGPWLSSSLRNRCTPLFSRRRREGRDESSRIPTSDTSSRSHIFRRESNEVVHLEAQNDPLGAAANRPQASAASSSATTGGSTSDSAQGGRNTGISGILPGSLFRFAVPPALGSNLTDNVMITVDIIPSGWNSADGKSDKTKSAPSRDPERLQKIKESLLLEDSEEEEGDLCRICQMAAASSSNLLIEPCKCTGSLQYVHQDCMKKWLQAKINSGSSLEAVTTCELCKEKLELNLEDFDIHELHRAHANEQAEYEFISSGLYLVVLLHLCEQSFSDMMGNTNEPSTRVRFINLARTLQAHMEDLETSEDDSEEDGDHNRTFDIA

[2] = molecular target: T3, GFP-USP9X wild type (mouse) (mouse, UniProt P70398 1-2559); test: co-IP; anti-Flag immunoprecipitation from lysates of HEK293 cells expressing Flag-NPHP5 or its fragments (alone or with GFP-tagged partner), Western blot; details: partners not purified
T3 construct: mouse USP9X cDNA (from S. Wood) sub-cloned into pEGFP-C1; pEGFP-C1 is expected to place EGFP at the N-terminus (surmise); also called pEGFP-C1-USP9X; purified USP9X; source: HEK293, transfected, in lysate; also purified from HEK293 (anti-GFP immunoprecipitation, 500 mM NaCl washes, kept on beads)

[3] = molecular target: T4, GFP-USP9X catalytically inactive mutant (C1566S) (mouse) (mouse, UniProt P70398 1-2559, C1566S); test: as above; details: partners not purified
T4 construct: mouse USP9X C1566S cDNA (from S. Wood) sub-cloned into pEGFP-C1; pEGFP-C1 is expected to place EGFP at the N-terminus (surmise); also called GFP-USP9X mutant (C1566S); pEGFP-C1-USP9X(C1566S); source: HEK293, transfected, in lysate; also purified from HEK293 (anti-GFP immunoprecipitation, 500 mM NaCl washes, kept on beads)
T4 sequence (P70398 whole entry C1566S): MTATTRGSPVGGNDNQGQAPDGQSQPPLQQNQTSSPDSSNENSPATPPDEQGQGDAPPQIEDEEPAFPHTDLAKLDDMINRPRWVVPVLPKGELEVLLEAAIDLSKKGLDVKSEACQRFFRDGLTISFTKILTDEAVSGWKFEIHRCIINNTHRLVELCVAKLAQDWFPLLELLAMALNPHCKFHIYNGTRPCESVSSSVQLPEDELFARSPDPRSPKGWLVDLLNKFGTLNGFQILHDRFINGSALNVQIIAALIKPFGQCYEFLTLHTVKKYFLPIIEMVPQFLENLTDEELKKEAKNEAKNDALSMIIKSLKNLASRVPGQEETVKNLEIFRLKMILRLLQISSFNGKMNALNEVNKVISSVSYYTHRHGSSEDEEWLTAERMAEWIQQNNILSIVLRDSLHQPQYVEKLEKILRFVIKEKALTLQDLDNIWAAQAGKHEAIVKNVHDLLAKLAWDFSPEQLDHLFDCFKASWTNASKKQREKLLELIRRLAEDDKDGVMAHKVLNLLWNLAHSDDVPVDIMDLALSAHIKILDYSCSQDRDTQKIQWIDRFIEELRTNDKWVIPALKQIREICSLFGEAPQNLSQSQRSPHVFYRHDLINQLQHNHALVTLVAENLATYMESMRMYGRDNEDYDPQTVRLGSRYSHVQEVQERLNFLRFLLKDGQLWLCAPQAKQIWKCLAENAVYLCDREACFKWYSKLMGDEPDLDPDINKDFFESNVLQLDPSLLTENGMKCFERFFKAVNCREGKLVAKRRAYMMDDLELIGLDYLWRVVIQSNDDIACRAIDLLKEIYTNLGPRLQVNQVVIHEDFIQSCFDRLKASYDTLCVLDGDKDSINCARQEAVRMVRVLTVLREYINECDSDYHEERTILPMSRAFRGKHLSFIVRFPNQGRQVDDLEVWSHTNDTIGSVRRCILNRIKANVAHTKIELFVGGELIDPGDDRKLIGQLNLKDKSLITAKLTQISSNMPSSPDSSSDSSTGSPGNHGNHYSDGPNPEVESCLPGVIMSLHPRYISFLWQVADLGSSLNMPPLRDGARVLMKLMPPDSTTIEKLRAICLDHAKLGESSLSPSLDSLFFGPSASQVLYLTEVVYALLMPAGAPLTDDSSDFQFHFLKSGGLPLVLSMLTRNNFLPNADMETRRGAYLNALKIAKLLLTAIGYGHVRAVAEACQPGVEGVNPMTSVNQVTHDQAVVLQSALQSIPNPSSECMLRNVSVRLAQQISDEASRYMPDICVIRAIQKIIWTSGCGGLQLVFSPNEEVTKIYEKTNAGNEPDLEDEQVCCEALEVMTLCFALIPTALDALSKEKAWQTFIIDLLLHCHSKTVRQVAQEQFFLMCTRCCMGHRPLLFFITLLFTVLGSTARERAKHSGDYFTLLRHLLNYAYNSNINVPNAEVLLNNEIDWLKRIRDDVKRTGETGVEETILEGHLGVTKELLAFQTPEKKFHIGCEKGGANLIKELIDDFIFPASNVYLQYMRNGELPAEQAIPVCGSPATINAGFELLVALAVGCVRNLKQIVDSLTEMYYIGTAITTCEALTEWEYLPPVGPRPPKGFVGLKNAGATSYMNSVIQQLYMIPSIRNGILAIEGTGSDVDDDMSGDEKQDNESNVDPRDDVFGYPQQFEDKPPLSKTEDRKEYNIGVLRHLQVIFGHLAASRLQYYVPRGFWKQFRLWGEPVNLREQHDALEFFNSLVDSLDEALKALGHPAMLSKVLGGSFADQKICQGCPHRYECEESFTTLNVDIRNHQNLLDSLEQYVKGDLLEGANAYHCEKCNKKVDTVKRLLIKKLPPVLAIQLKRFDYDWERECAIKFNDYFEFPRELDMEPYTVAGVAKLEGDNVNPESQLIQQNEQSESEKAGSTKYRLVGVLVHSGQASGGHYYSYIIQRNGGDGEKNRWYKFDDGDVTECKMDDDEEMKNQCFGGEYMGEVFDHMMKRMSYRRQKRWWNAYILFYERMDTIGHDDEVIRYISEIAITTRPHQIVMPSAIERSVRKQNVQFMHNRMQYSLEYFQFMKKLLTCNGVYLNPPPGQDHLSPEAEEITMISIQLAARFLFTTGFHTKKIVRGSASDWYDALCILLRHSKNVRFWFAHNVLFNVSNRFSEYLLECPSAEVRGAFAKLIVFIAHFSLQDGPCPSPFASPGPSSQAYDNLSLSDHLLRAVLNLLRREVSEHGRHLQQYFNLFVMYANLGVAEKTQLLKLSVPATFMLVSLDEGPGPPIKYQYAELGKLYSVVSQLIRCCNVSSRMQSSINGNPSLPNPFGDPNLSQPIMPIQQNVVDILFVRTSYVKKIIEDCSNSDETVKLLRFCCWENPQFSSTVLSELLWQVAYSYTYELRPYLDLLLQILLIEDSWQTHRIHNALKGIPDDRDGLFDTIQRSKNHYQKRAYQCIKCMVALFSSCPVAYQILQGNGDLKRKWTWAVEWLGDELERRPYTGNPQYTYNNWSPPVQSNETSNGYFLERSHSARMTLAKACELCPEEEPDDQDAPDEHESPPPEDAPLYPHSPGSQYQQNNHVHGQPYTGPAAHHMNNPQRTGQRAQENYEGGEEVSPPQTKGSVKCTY

T3 sequence (P70398 whole entry, the tested form may be a part): as the sequence (P70398 whole entry C1566S) above, with S1566C counted along it

- binding result (BBS11/TRIM32, endogenous): binds
- binding result [1]: binds
- binding result [2]: binds
- binding result [3]: binds
B1: Flag-NPHP5 (nephrocystin-5), full length 1-598 (natural protein, UniProt Q15051 1-598, looked up)
chain: MKPTGTDPRILSIAAEVAKSPEQNVPVILLKLKEIINITPLGSSELKKIKQDIYCYDLIQYCLLVLSQDYSRIQGGWTTISQLTQILSHCCVGLEPGEDAEEFYNELLPSAAENFLVLGRQLQTCFINAAKAEEKDELLHFFQIVTDSLFWLLGGHVELIQNVLQSDHFLHLLQADNVQIGSAVMMMLQNILQINSGDLLRIGRKALYSILDEVIFKLFSTPSPVIRSTATKLLLLMAESHQEILILLRQSTCYKGLRRLLSKQETGTEFSQELRQLVGLLSPMVYQEVEEQKLHQAACLIQAYWKGFQTRKRLKKLPSAVIALQRSFRSKRSKMLLEINRQKEEEDLKLQLQLQRQRAMRLSRELQLSMLEIVHPGQVEKHYREMEEKSALIIQKHWRGYRERKNFHQQRQSLIEYKAAVTLQRAALKFLAKCRKKKKLFAPWRGLQELTDARRVELKKRVDDYVRRHLGSPMSDVVSRELHAQAQERLQHYFMGRALEERAQQHREALIAQISTNVEQLMKAPSLKEAEGKEPELFLSRSRPVAAKAKQAHLTTLKHIQAPWWKKLGEESGDEIDVPKDELSIELENLFIGGTKPP
notes: also called IQCB1; source: HEK293, transfected, in lysate; also purified from HEK293 (anti-Flag immunoprecipitation, 500 mM NaCl washes, eluted with Flag peptide)
